Test results as given in patent publication US6083914.

How the values were obtained:
[1] = target: platelets (human, fresh washed); experiment: competition: soluble peptide against divalent cation-independent adhesion of platelets to coated 45 kDa
[2] = target: platelets (human, fresh washed); experiment: competition: 300 uM soluble peptide against platelet adhesion to coated FN in the presence of Ca+2

Binder | ED50 [1] [µM] | fold reduction of apparent affinity against FN312-326 [1] [fold] | percent reduction of platelet adhesion to FN [2] [%]
TAVTQTYGGNSN [FN312-323] | 712 | 10 | –
TAVTQTYGGNSNGEP [FN312-326] | 68 | – | 50
QTYGGNSNGEPSVLPFTY [FN316-333] | > 2000 | – | –
TAVTQTY [FN312-318] | > 2000 | – | –
